Results on one molecule are retold here after paper PMC8373988 (2021).

The target of this assay is biotinylated-AviTag-haBiP^T229A-V461F (residues 27–635), unmodified (Chinese hamster, UniProt G3I8R9 27-635, T229A | V461F, biotin on the N-terminal Avi-tag). Kind of assay: BLI; ATP-bound BiP.
Sequence of biotinylated-AviTag-haBiP^T229A-V461F (residues 27–635), unmodified (G3I8R9 27-635 T229A/V461F): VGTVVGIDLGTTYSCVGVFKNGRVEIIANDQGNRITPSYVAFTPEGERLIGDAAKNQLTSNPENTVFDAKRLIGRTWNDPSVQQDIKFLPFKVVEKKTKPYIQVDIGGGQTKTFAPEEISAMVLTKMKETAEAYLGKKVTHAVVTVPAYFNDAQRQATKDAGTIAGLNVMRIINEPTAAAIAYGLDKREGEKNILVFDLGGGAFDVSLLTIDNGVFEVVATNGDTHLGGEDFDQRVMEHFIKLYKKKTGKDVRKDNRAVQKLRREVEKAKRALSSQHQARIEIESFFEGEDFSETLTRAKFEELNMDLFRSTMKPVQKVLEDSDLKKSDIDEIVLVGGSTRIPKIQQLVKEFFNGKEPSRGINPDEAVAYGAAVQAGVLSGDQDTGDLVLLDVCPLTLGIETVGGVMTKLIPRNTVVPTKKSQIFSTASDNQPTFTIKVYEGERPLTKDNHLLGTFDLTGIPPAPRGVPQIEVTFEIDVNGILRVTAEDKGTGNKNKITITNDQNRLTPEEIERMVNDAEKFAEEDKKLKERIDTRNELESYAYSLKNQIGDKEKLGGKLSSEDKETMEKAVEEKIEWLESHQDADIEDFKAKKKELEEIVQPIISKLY

B1: isolated TPR domain of FICD (domain or fragment)
chain: LEARAALNQALEMKRQGKREKAQKLFMHALKMDPDFVDALTEFGIFSEEDKDIIQADYLYTRALTISPYH
A word on the koff: it is the rate constant with which the complex falls apart. Read a high koff as a short-lived complex. With B1, the koff is 0.176 s⁻¹.
